From US12416018B2, “Regulation of gene expression by aptamer-mediated modulation of alternative splicing” (MEIRAGTX GENE REGULATION LIMITED, priority 2015, dated 2025)
Entries after “also recorded” stand apart in the source; their conditions may differ.

system: firefly luciferase gene expression in HEK 293 cells; experiment: Firefly luciferase assay of HEK 293 cells transfected with splicing / Intron-Exon-Intron constructs (no ligand); format: cell-based; details: not given
Procedure: Transfection: 3.5×10^4 HEK 293 cells were plated in 96-well flat bottom plate the day before transfection. Plasmid DNA (500 ng) was added to a tube or a 96-well U-bottom plate. Separately, TransIT-293 reagent (Mirus; 1.4 uL) was added to 50 μL Opti-mem I media (Life Technologies), and allowed to sit for 5 minutes at room temperature (RT). Then, 50 μL of this diluted transfection reagent was added to the DNA, mixed, and incubated at room temperature (“RT”) for 20 min. Finally, 7 μL of this solution was added to a well of cells in the 96-well plate.
Firefly luciferase assay of cultured cells: 24 hours after media change, plates were removed from the incubator, and equilibrated to RT for several minutes on a lab bench, then aspirated. Glo-lysis buffer (Promega, 100 μL, RT) was added, and the plates allowed to remain at RT for at least 5 minutes. Then, the well contents were mixed by 50 μL trituration, and 20 μL of each sample was mixed with 20 μL of bright-glo reagent (Promega) that had been diluted to 10% in glo-lysis buffer. 96 wells were spaced on an opaque white 384-well plate. Following a 5 min incubation at RT, luminescence was measured using Tecan machine with 500 mSec read time. The luciferase activity was expressed as mean relative light unit (RLU)±S.D.
The constructs were verified by DNA sequencing (Genewiz). DNA was transfected in HEK 293 cells and assayed for luciferase activity as described in Example 1.
Sequences containing the DHFR exon 2 with native 3′ and 5′ ss sequences, in which the 5′ss was embedded in a hairpin structure were synthesized (IDT), and cloned into the indicated vector using Golden Gate cloning strategy (NEB). Constructs were transfected into HEK 293 cells and assayed for luciferase activity as described in Example 1.

Molecule	luciferase expression relative to control constructs (in words)	fold lower luciferase expression compared with Con 1	fold increase in luciferase expression compared to the wild type DHFR exon 2 [fold]
Con 1: luciferase gene with truncated human beta-globin intron 2 (IVS2Δ), original IVS2 splice sites; SEQ ID NO: 1 (nucleic acid, Luci-IVS-Luci in construct Con1 Human beta- globin intron 2 containing a deletion (IVS2) is in lowercase and flanking luciferase sequence is in uppercase.) DNA: GAGGTTCCATCTGCCAGGTATCAGGGTGAGTCTATGGGACCCTTGATGTTTTCTTTCCCCTTCTTTTCTATGGTTAAGTTCATGTCATAGGAAGGGGAGAAGTAACAGGGTACACATATTGACCAAATCAGGGTAATTTTGCATTTGTAATTTTAAAAAATGCTTTCTTCTTTTAATATACTTTTTTGTTTATCTTATTTCTAATACTTTCCCTAATCTCTTTCTTTCAGGGCAATAATGATACAATGTATCATGCCTCTTTGCACCATTCTAAAGAATAACAGTGATAATTTCTGGGTTAAGGCAATAGCAATATTTCTGCATATAAATATTTCTGCATATAAATTGTAACTGATGTAAGAGGTTTCATATTGCTAATAGCAGCTACAATCCAGCTACCATTCTGCTTTTATTTTATGGTTGGGATAAGGCTGGATTATTCTGAGTCCAAGCTAGGCCCTTTTGCTAATCATGTTCATACCTCTTATCTTCCTCCCACAGCAAGGATATGGGCTCACTGAGACTACATCAGCTATTCT	did not affect gene expression	–	–
Con 2: luciferase with IVS2Δ, altered 5′ss; SEQ ID NO: 2 (nucleic acid, Luci-IVS-Luci in construct Con2) DNA: GATTACACCCGAGGGGGATGATAAAGTAAGCCTATGGGACCCTTGATGTTTTCTTTCCCCTTCTTTTCTATGGTTAAGTTCATGTCATAGGAAGGGGAGAAGTAACAGGGTACACATATTGACCAAATCAGGGTAATTTTGCATTTGTAATTTTAAAAAATGCTTTCTTCTTTTAATATACTTTTTTGTTTATCTTATTTCTAATACTTTCCCTAATCTCTTTCTTTCAGGGCAATAATGATACAATGTATCATGCCTCTTTGCACCATTCTAAAGAATAACAGTGATAATTTCTGGGTTAAGGCAATAGCAATATTTCTGCATATAAATATTTCTGCATATAAATTGTAACTGATGTAAGAGGTTTCATATTGCTAATAGCAGCTACAATCCAGCTACCATTCTGCTTTTATTTTATGGTTGGGATAAGGCTGGATTATTCTGAGTCCAAGCTAGGCCCTTTTGCTAATCATGTTCATACCTCTTATCTTCCTCCCACAGCCGGGCGCGGTCGGTAAAGT	expression levels similar to Con 1 and Con 8	–	–
DHFR_wtmtSRp40_HP15: DHFR_wtmtSRp40 with 5′ss in hairpin; SEQ ID NO: 56 (nucleic acid, expressed or natural sequence) DNA: GAGTAACGCTGTTTCTCTAACTTGTAGGAATGAATTCAGATATTTCCAGAGAATGAAAAAAAAATCTTCAGTAGAAGGTAATGTGGCGAAAGCCACATTACCTTCT	restored luciferase expression	–	–
Con 4: luciferase with IVS2Δ, weak 5′ss; SEQ ID NO: 4 (nucleic acid, Luci-IVS-Luci in construct Con4) DNA: AAGAGCTGTTTCTGAGGAGGTGTGGCTATGGGACCCTTGATGTTTTCTTTCCCCTTCTTTTCTATGGTTAAGTTCATGTCATAGGAAGGGGAGAAGTAACAGGGTACACATATTGACCAAATCAGGGTAATTTTGCATTTGTAATTTTAAAAAATGCTTTCTTCTTTTAATATACTTTTTTGTTTATCTTATTTCTAATACTTTCCCTAATCTCTTTCTTTCAGGGCAATAATGATACAATGTATCATGCCTCTTTGCACCATTCTAAAGAATAACAGTGATAATTTCTGGGTTAAGGCAATAGCAATATTTCTGCATATAAATATTTCTGCATATAAATTGTAACTGATGTAAGAGGTTTCATATTGCTAATAGCAGCTACAATCCAGCTACCATTCTGCTTTTATTTTATGGTTGGGATAAGGCTGGATTATTCTGAGTCCAAGCTAGGCCCTTTTGCTAATCATGTTCATACCTCTTATCTTCCTCCCACAGCCTTCAGGATTACAAGATTCAA	significantly reduce luciferase expression	–	–
Con 3: luciferase with IVS2Δ, altered 5′ss; SEQ ID NO: 3 (nucleic acid, Luci-IVS-Luci in construct Con3) DNA: TTCTTCGCCAAAAGCAGTAAGTCTATGGGACCCTTGATGTTTTCTTTCCCCTTCTTTTCTATGGTTAAGTTCATGTCATAGGAAGGGGAGAAGTAACAGGGTACACATATTGACCAAATCAGGGTAATTTTGCATTTGTAATTTTAAAAAATGCTTTCTTCTTTTAATATACTTTTTTGTTTATCTTATTTCTAATACTTTCCCTAATCTCTTTCTTTCAGGGCAATAATGATACAATGTATCATGCCTCTTTGCACCATTCTAAAGAATAACAGTGATAATTTCTGGGTTAAGGCAATAGCAATATTTCTGCATATAAATATTTCTGCATATAAATTGTAACTGATGTAAGAGGTTTCATATTGCTAATAGCAGCTACAATCCAGCTACCATTCTGCTTTTATTTTATGGTTGGGATAAGGCTGGATTATTCTGAGTCCAAGCTAGGCCCTTTTGCTAATCATGTTCATACCTCTTATCTTCCTCCCACAGCTCTGATTGACAAATACG	expression levels similar to Con 1 and Con 8	–	–
DHFR_Con15ss_HP15: DHFR_Con15ss with 15 bp hairpin embedding the 5′ss; SEQ ID NO: 54 (nucleic acid, expressed or natural sequence) DNA: GAGTAACGCTGTTTCTCTAACTTGTAGGAATGAATTCAGATATTTCCAGAGAATGACCACAACCTCTTCAGTAGAGGGTGAGTTGGCGAAAGCCAACTCACCCTCT	allows luciferase expression	–	–
DHFR_Con15ss_HP15x: 15 bp hairpin with broken stem; SEQ ID NO: 55 (nucleic acid, expressed or natural sequence) DNA: GAGTAACGCTGTTTCTCTAACTTGTAGGAATGAATTCAGATATTTCCAGAGAATGACCACAACCTCTTCAGTAGAGGGTGAGTTGGCGAAAAACAGCATAAAGTAT	not able to restore luciferase expression; also recorded: does not restore luciferase expression	–	–
DHFR_wt: Con 1 with wild type human DHFR exon 2, native 5′ss; SEQ ID NO: 47 (nucleic acid, expressed or natural sequence) DNA: GAGTAACGCTGTTTCTCTAACTTGTAGGAATGAATTCAGATATTTCCAGAGAATGACCACAACCTCTTCAGTAGAAGGTAATGTG	–	116 fold	–
DHFR_wtSC35hnRNPA1: DHFR exon 2, SC35 site replaced by hnRNP A1 binding site; SEQ ID NO: 53 (nucleic acid, expressed or natural sequence) DNA: GAGTAACGCTGTTTCTCTAACTTGTAGGAATGTAGGGAGATATTTCCAGAGAATGACCACAACCTCTTCAGTAGAAGGTAATGTG	increased luciferase expression	–	4.3
DHFR_Con45ss: DHFR exon 2 with weak 5′ss from Con 4; SEQ ID NO: 50 (nucleic acid, expressed or natural sequence) DNA: GAGTAACGCTGTTTCTCTAACTTGTAGGAATGAATTCAGATATTTCCAGAGAATGACCACAACCTCTTCAGTAGGAGGTGTGGTG	luciferase expression is increased	–	–
DHFR_Con15ss: DHFR exon 2 with 5′ss from Con 1; SEQ ID NO: 49 (nucleic acid, expressed or natural sequence) DNA: GAGTAACGCTGTTTCTCTAACTTGTAGGAATGAATTCAGATATTTCCAGAGAATGACCACAACCTCTTCAGTAGAGGGTGAGTTG	abolishes luciferase expression compared to Con 1; also recorded: efficiently suppresses luciferase expression	545 fold	–
DHFR_wtStrSC35: DHFR exon 2 with stronger SC35 binding site; SEQ ID NO: 52 (nucleic acid, expressed or natural sequence) DNA: GAGTAACGCTGTTTCTCTAACTTGTAGGAATGGCCCCTGATATTTCCAGAGAATGACCACAACCTCTTCAGTAGAAGGTAATGTG	–	139 fold	–
DHFR_wt5ssC: DHFR exon 2 with native 5′ss four nucleotides mutated to C; SEQ ID NO: 48 (nucleic acid, expressed or natural sequence) DNA: GAGTAACGCTGTTTCTCTAACTTGTAGGAATGAATTCAGATATTTCCAGAGAATGACCACAACCTCTTCAGTAGAAGCCCCTGTG	restored to the level of Con 1	–	–
DHFR_wtmtSRp40: DHFR exon 2 with mutated SRp40 binding site; SEQ ID NO: 51 / 58 (nucleic acid, expressed or natural sequence) DNA 1: GAGTAACGCTGTTTCTCTAACTTGTAGGAATGAATTCAGATATTTCCAGAGAATGAAAAAAAAATCTTCAGTAGAAGGTAATGTG DNA 2: GAGTAACGCTGTTTCTCTAACTTGTAGGAATGAATTCAGATATTTCCAGAGAATGAAAAAAAAATCTTCAGTAGAAGGTAATGT	does not express luciferase	2,982 fold	–

same assay, conditions: listed as DHFR_Con 15ss_HP15

Molecule	luciferase expression relative to control constructs (in words)
DHFR_Con15ss_HP15: DHFR_Con15ss with 15 bp hairpin embedding the 5′ss; SEQ ID NO: 54 (nucleic acid, expressed or natural sequence) DNA: GAGTAACGCTGTTTCTCTAACTTGTAGGAATGAATTCAGATATTTCCAGAGAATGACCACAACCTCTTCAGTAGAGGGTGAGTTGGCGAAAGCCAACTCACCCTCT	completely restores luciferase expression to the level of Con 1

same assay, conditions: listed as DHFR_mtSRp40

Molecule	fold lower luciferase expression compared with Con 1 [fold]
DHFR_wtmtSRp40: DHFR exon 2 with mutated SRp40 binding site; SEQ ID NO: 51 / 58 (nucleic acid, expressed or natural sequence) DNA 1: GAGTAACGCTGTTTCTCTAACTTGTAGGAATGAATTCAGATATTTCCAGAGAATGAAAAAAAAATCTTCAGTAGAAGGTAATGTG DNA 2: GAGTAACGCTGTTTCTCTAACTTGTAGGAATGAATTCAGATATTTCCAGAGAATGAAAAAAAAATCTTCAGTAGAAGGTAATGT	2982
